The record followed here is paper PMC5579567.

Experiment [1] has as its target SgcE10, chymotrypsin digested (crystallised form) (Streptomyces globisporus). In words: crystal structure.
Experiment [2] has as its target SgcE10, thioesterase (TE) of the 9-membered enediyne C-1027 biosynthetic machinery (Streptomyces globisporus). As to the kind of experiment: SEC.

As a reminder, the stoichiometry N is a count of units in the complex or per binding partner. In turn, “SgcE10, chymotrypsin digested (crystallised form) (enzyme)” yielded a stoichiometry N in experiment [1] of 4.

Regarding “SgcE10, thioesterase (TE) of the 9-membered enediyne C-1027 biosynthetic machinery (enzyme)”, in experiment [2], the stoichiometry N turned out to be 4.
